{
  "source": "paper PMC5415311",
  "molecular_target": "adeno-associated virus (AAV)-DJ capsid protein",
  "test": "cryo-EM structure",
  "data": [
    {"substance": "adeno-associated virus (AAV)-DJ capsid protein", "values": [
      {"measurement": "stoichiometry N", "result": 60}
    ]}
  ]
}
